This is an account of results in the DeepSol protein solubility set.

The data set in a line: soluble on expression in E. coli; label from the status in PepcDB or PDB records.
In the case of “MYHLKKILEVKQVNKTYSMDGNANYHVLKNIDLEVYEGEFVSVMGPSGSGKSTLLYNISGMDQMSSGSVKIDSKELSCMKEEELAKLRLTEIGFIFQQSNLLRNLNLFDNIILSAYLAKCESKKIVNKRALELMENMGISDIASHYITEASGGQLQRVSICRALINNPNIIFADEPTGALNLKSTEEVMQILLNINRDGTTIMLVTHDVKVAAKTERILFMADGEIVSEIQLGKLRNDDLKAREEKLLNWLAVLGF”, the “soluble on expression in E. coli” value was “not soluble”. The same measure for “MKATTVKENEVKDDRKLSLNEMLRKRCLQVKNTKMKNSSMPKFQYFVRLNGKTRTLNVNASDTVEQGKMQLCHNARSTRMSYGGKPLSDQITFGEYNISNNSTMDLHFRI”: “not soluble”; for “MSLKKLIVLTCTLSLLTACGDSIEKKAGEKLAAARAAFEHNDYNEAKLQIDSIKILYPKAFDTRKEGIKLMQQVELKEQQESLVYLDSMLQVKQEEFEAIKNKYTFEKNEEYQKIGNYFWPTQTVEKNLHRSFLRFQVNEQGVMTLTSIYCGPSNIHHVAVKVIAPDGSFAETPASNDSYETTDLGEKIEKADYKMGEDGNVLSFLYMNRDKKNIRVEYLGERKFSTTMTPSDREALVGTYELAKLLSSIRQIQQEKEEANLKIEFVKRKMEQKAQEEAAEKEGHHHHHH”: “soluble”; for “MTNEAIQNREPFLQNLREKLDVEKQPVSAHPFEPVNHLPEEQLADKTPAELLTIVKERVETIHTNLVETTQENLLTTIQQIVAEFGGDNLLLPTDARFEAYGLADLAKSLEAVSVKQWQPGSEQREANIQTAAQANIAIAFAEFLLAESGTIVVESNAGQGRALHFLPKHYISIIPFSKLVPRSTQPAAFYTEKIEKGEKIGSAIHFISGPSNSGDIEMQLVVGLHGPLEVCYVVVMDR”: “not soluble”. The value for “MNGELYLKKGLLQLNKKLYDEALATLNKVIELDDDLASLTSAKCILGEYYFIHQNYEKSKEFLSWICDRQDELEEEFDDLLSEEINTASVLMELIEKYKL” was “not soluble”; that for “MAVKMKYWTDEVGGERGSLKVELKPFGYRIIPLTQWKTLIAMDDVEVKKGEPEIIEVRPFTIPGGTMVGPLHIMRHALGTVLDVVECGIPTRVEDEKCIQRVVFLPVDDGVVREGDIVGVLKVFFIKTGLISRLFNLKPTKVELREEIVEANITWRDDGNIYREKISTKVFGYTRTHVGVWEPLVADEDVGVRAGDVLRVKIRNVELPPNTVVVPLSISRNPYGVVVDVVQLGKPRRVEEPKNIEQAVFLAVDDGEIKRGDLLGVINVYYVGLKKLEPLIATKEPQDFTLVYRKEEKIIRKKVHLPPFGYHRSPVARWEVVVAAEDKELTKNKPVRVKIKKIKIPANTIVYPMEIMRHSDGVLIDLVSDLPWRVEEGGKVDEAIFLPLFDGKIEKDDLLGVINLYQVELSPVEKIREMYNRFVKLSEEELMKYVEGLQ” was “soluble”; that for “MKNPTVSIIIPVYNAEGTITRCLDSIIHQTYSSIEVIIIDDGSSDLSGSICDNYATKYNYIQVIHKKNEGVSIARQIGVKHSKGLYSIHVDADDYIDKCEIERMMDIALKFNADMVVCDYILEYKKNKFVYQKGMKDACDAFDFLKQIYNGIFIGTLWNKLIKTSLYNNVIFLKQCNYCEDVYILTQILSNNISINYINEALYHYCYDASSLTREINRNYIINRIIFIQEIEKILPLDLDLSRFKAGIKLSILKSGEYTYKEYINLYPNTNIPKELLNKRNLLFLSTANFFIGYQFLKILFNLKKRFKSFHL” was “not soluble”. The value for “MSLGPVGMSGGMDINSMVSKIVDAERVPKQQRIDNDRTTINASISAYGRLRESLDTMKNLMANFRQEKAFAVRTVETTDDNIVSATATTDAIAGKYAIDVLQLAQSHK” was “not soluble”; that for “SLQGKPTISVPEFKNDTNMSWWWWSGNTSRELADALSNELTSTGNFQVVERQNLGSVLSEQELAELGLTRPETSAQRGQLTGAQYIVLGRVTAYEEGVSSESGGNNFGLNLGLFSIGNSERQAKQEAYVAIDLRVVDSSTGEVVYARTVEGRATDTAASSANNVNILGIVNTGQDNQSTSRAPVGKALRAGLVEITDYLSCVMVEQDNCIQEYQDKDRQRRQKTKDTLILE” was “soluble”. For the sequence “AHHHHHHGSQHPRKIYFVDTSFLTFLSVKFSKNMERLMENTVFIELLRRGKGVNYALGKNWGIDFVLLIKVSYDVSDEGTLRCEVNALRKVSREFDFKNALLITWNSKRRIEREEL”, the “soluble on expression in E. coli” value was “soluble”. The same measure for “MGSDKIHHHHHHMFGLIPKEEKFFAMFKDMAANIVTGGKLLKQMLDSYDDPQASQKKIKDVEHACDAITHDIIQKLNKSFVTPFDREDIYALAAALDDIVDLIDASAQRFIMYNVEKPTPEAKELAFLILQGCLAIEKAVSHLGEKFEHIAEHCVEVNALENEADRVCREAISRLFDEEKDPIQLIKWKEIYETLERATDKCEDAANILESVVVKNA”: “not soluble”; for “MRSDGRKEDQLRPVSIQRDFLEYPEGSCLISFGKTKVICTASVIENVPNWLKGKGQGWITAEYSMLPRATQQRTIRESVQGRIGGRTHEIQRMIGRAMRTAVELTKIGERTIWVDCDVIQADGGARTAAITGAFVAVADAIIKLHKEGIIEETPIKDFVAAVSVGIVNDRILLDLNFEEDSAAQVDMNVVGTGSGRLSEVHTMGEEYSFTKDELIKMLDLAQKGINELIELQKKLYVIQDGKWERSELKEVSSTT”: “soluble”. The value for “GMQGKKFISPGAWFSMNYPSDWNEFEDGEGSFLFYNPDVWTGNFRISAFKGNASYGKDAIRQELKENDSASLVKIGTWDCAYSKEMFQEEGTYYTSHLWITGTGNIAFECSFTVPKGGSAKEAEEVIATLEARKEGEKYPAELIPVRLSEIYQINEGYEWVVSTVKQELKKDFQGVEEDLEKIQQVIDSGKISPKKKDEWLAIGITVCAILTNEVEGMEWKTLIDGNREVPVLEYQGRTIDPMKIAWSKVKAGQPCNIAEAYQSAIDHH” was “soluble”.

In the case of “MDLKSTKKTWKIPSFNQMWGKITSHIGVWFGLEEAERPMRASCSLSMIHHPQLTAVRSSKSSENLHRITTMSPQRIQDVDGSPSTRKPSSSIFTLRRSRNKEKKYKNNGGGGSTKSPISKNGTNEMTQSWHSNHVNGASSGSGSGSTPEHHNKNIFSFLSRQSRSRSNNPSETMSTVPLNKNSPSMPPPPSSNTVADFTHLRRRRPRSAHYDPNTITLPAKEEVTPQDVNDLYKRIDKLGEGSYATVYKCESKLDGSIVALKEIKLQFQEGLPFTAIREASLLRNLRHANIVSLHDIFYQHHQLTFVFEYMKMDLSKYLEQNVYGLDSIDIKLLLFQLLRGLDFCHRKKILHRDLKPQNLLLDEDGVLKLADFGLARAKSVPSRTYSHEVVTLWYRPPDVLMGSTDYSTSLDMWGVGCIFAEICTGAALFPGSKDSHYPGTKDQLDMIFSIRGTPDEKKWPEVKTLPGYTPELFPRYRELSFIAVNPMFTKILKTGQELLGMLLQLRPESRVSAASAMLHPYFASFPREVHLLAPSQSIFRLKELKDLRSL”, the “soluble on expression in E. coli” value is given as “not soluble”. As for “QEDVTVKSVTLITKVFPEGEKVCAVVIEYPVEIDGQKLSPDQFSVKVKTGDTYSSRTITKVYANNSGGLSFSIFNNRGKYVVLELSTEDLHSNTIVFGPNFLNTRMKLDYIVSQLVPIFDVDGNEVEPFTSKQTDEKHLIIDDFLAFTFKDPETGVEIPYRLFVPKDVNPDRKYPLVVFLHGAGERGTDNYLQVAGNRGAVVWAQPRYQVVHPCFVLAPQCPPNSSWSTLFTDRENPFNPEKPLLAVIKIIRKLLDEYNIDENRIYITGLSMGGYGTWTAIMEFPELFAAAIPICGGGDVSKVERIKDIPIWVFHAEDDPVVPVENSRVLVKKLAEIGGKVRYTEYEKGFMEKHGWDPHGSWIPTYENQEAIEWLFEQSR”, the “soluble on expression in E. coli” value is recorded as “soluble”. The value for “MIAMDIREIGLRLVGEAIKAADPYRAVLNAVKVSDDKIIVQGKEFEIKGKVYVIALGKAACEMARAIEDILDVEDGVAVTKYGYGKELKRIKVIEAGHPIPDEKSILGAKEALSILNRARENDIVFILISGGGSALFELPEEGISLEDLKLTTDLLLKSGAKIHEINTVRKHISKVKGGKLAKMIKGTGIVLIISDVVGDNLEAIASGPTVKDPTTFEDAKRILELYDIWEKVPESVRLHIERGLRGEVEETLKEDLPNVHNFLIASNSISCEAIAREAQRLGFKAYIMTTTLEGEAKDAGLFIGSIVQEIAERGRPFEPPVVLVFGGETTVTIEGKGGKGGPNQEIALSATRKISDLEALIVAFDTDGTDGPTDAAGGIVDGTTYKKLREKGIDVEKVLKEHNSYEALKKVGGLLFTGPTGTNVNSIVIAIVTSKRGRT” was “soluble”.
